Results from patent US20210107981A1 (SUTRO BIOPHARMA, published 2021).

Legend:
[1] = target: T1, Human PD-1 (ACROBiosystems, Inc., Catalog No. PD1-H5221) (human, UniProt Q15116 25-167); test: SPR (Biacore), scFv captured on anti-FLAG, PD-1 as analyte
T1 construct: Bought recombinant protein; also called huPD1-His; PD-1-his; not shown: His tag of the bought protein (huPD1-His)
Method: Monoclonal anti-FLAG M2 IgG (Sigma-Aldrich #F9291) was immobilized onto a CMS chip (GE Life Sciences) using amine coupling chemistry (from Amine Coupling Kit, GE Life Sciences). The immobilization steps were carried out at a flow rate of 25 μl/min in 1×HBS-EP+ buffer (GE Life Sciences; 10× Stock diluted before use). The sensor surfaces were activated for 7 min with a mixture of NHS (0.05 M) and EDC (0.2 M). The Anti-FLAG M2 IgG was injected over all 4 flow cells at a concentration of 25 μg/ml in 10 mM sodium acetate, pH 4.5, for 7 min. Ethanolamine (1 M, pH 8.5) was injected for 7 min to block any remaining activated groups.
Off-rate and kinetic binding experiments were performed at 25° C. using 1×HBS-EP+ buffer. Test and control antibodies were injected over the Anti-FLAG surface at concentrations of 5-10 μg/mL for 12 seconds at a flow rate of 10 μl/min on flow cells 2, 3 and 4, followed by a buffer wash for 30 seconds at the same flow rate. Kinetic characterization of antibody samples was carried out with a single concentration of antigen (for off-rate ranking) or a 1:2 dilution series of antigen (for kinetic characterization) and 1 injection of 0 nM antigen (i.e., buffer alone). After capturing ligand (anti-PD-1 antibody) on the anti-FLAG surface, the analyte (huPD1-His) was bound at 50, 25, 12.5, 6.25 and 0 nM for 180 seconds, followed by a 600 second dissociation phase at a flow rate of 50 μl/min. Between each ligand capture and analyte binding cycle, regeneration was carried out using 2 injections of 10 mM glycine pH 2.0 for 30 seconds at 30 μL/min, followed by a 30 second buffer wash step.
The data was fit with the Biacore T200 Evaluation software, using a 1:1 Langmuir binding model. KD (affinity, nM) was determined as a ratio of the kinetic rate constants calculated from the fits of the association and dissociation phases.

[2] = target: T2, cynomolgus PD-1 expressed on CHO cells (cynomolgus, UniProt B0LAJ3 25-288); test: FACS cell binding on CHO cells expressing cynomolgus PD-1
T2 construct: also called Cell-Surface Cynomolgus PD-1 antigen
Method: (§1) A mix of parental CHO cells and CHO-PD1 cells was prepared as follows: Parental CHO cells were washed 2× in PBS then incubated in PBS containing 1 μM CellTrace™ Oregon Green488® (Life Technologies) at 37° C. for 30 minutes. Cells were then washed 2× with RPMI w/10% fetal calf serum (FCS), washed 2× with FACS buffer (PBS w/2% FCS), suspended thoroughly in ice-cold FACS buffer at a final concentration of 2×10⁶ cells/mL and kept on ice. CHO-PD1 cells were similarly washed with FACS buffer and kept on ice at 2×10⁶ cells/mL. Parental CHO cells and CHO-PD1 cells were then mixed to obtain a 1:1 cell suspension and seeded at 100 μL per well on 96 well polypropylene plates. Plates were spun at 1500 rpm for 5 minutes and cell pellets were suspended in 50 μL FACS buffer containing 6-12 point dilutions of anti-PD-1 variants starting from concentrations of −100-200 nM antibody, dispensed using BioMek FX (Beckman Coulter). Cells were then incubated on ice for 1 hr, washed with FACS buffer and incubated for 1 hr on ice with 50 μL FACS buffer containing 2.5 μg/ml R-phycoerythrin-conjugated goat anti-Human IgG (Jackson ImmunoResearch) or AF647-conjugated goat anti-mouse IgG (Life Technologies) dispensed using BioMek FX (Beckman Coulter). Cells were then washed 2× with FACS buffer and fixed for 10 minutes in 200 μL PBS with 2% paraformaldehyde (PFA) prior to fluorescence detection. Samples were acquired using a Becton Dickinson LSRII FACS. Mean Fluorescence Intensity of PD-1 antibody binding was analyzed using FlowJo® software (Tree Star, Inc.).
The affinity of the IgGs for cell-surface expressed cynomolgus PD-1 were measured according to Example 6, above.

[3] = target: T3, human PD-1 expressed on the cell surface (CHO-PD1 cells) (human, UniProt Q15116 25-288); test: FACS cell binding on CHO cells expressing human PD-1
T3 construct: Also used here as the target for native PD-1 on human PBMC / T cells in the functional (IFN-g) assays; also called CHO cell line overexpressing human PD-1; Cell-Surface Human PD-1 antigen
Method: as §1
The affinity of the IgGs for cell-surface expressed human PD-1 were measured according to Example 6, above.

[4] = target: T1, Human PD-1 (ACROBiosystems, Inc., …); test: SPR (Biacore), IgG as ligand, PD-1-his as sample

T3 sequence (Q15116 25-288 limits assumed): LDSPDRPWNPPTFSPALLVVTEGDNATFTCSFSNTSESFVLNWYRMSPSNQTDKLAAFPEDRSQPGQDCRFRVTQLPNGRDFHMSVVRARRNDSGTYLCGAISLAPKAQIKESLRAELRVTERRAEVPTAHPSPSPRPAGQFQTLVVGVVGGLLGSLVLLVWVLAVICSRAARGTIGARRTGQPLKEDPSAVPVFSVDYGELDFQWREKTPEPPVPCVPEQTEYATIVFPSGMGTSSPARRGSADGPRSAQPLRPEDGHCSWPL
T1 sequence (Q15116 25-167 limits assumed): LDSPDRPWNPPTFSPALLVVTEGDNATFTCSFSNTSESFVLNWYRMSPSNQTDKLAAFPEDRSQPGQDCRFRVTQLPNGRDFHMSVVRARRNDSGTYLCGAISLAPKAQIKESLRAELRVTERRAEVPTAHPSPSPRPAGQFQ
T2 sequence (B0LAJ3 entry or part of it limits assumed, form in doubt): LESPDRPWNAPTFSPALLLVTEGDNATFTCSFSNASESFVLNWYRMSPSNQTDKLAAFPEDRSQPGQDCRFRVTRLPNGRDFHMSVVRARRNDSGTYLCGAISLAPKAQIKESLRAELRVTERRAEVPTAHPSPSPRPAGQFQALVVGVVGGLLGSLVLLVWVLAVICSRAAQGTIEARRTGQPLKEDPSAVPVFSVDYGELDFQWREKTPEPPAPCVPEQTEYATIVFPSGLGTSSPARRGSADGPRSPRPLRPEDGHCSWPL

Row | Binder | Kd [1] [nM] | koff [1] [s⁻¹] | kon [1] [M⁻¹ s⁻¹] | Kd [2] [nM] | Kd [3] [nM] | Kd [4] [nM]
1 | m1B10 scFv (scFv, Mouse single-chain antibody, whole chain with FlagHis tag) scFv: MSDVQLQESGPGLVKPSQSLSLTCTVTGHSITSDYAWNWIRQFPGNKLEWMGYISYSGRTSYNPSLTSRISITRDTSKNQFFLQLNSVTTEDTATYYCARGYALDYWGQGTSVTVSSGGGGSGGGGSGGGGSQIVLSQSPAILSASPGEKVTMTCRTSSSVNYMHWFQQKPGSSPKPWIYATSKLASGVPARFSGSGSGTSYSLTISRVEAEDAATYFCQQWISDPWTFGGGTKLEIKGSGDYKDDDDKGSGHHHHHH | 12.8 | 0.00239 | 186000 | – | – | –
2 | m4B10 scFv (scFv, Mouse single-chain antibody, whole chain with FlagHis tag) scFv: MEVKLVESGGGLVKPGGSLKLSCAASGFTFSTYGMSWVRQTPEKRLQWVATISGGGSNTYYSDSVKGRFTISRDNAKNNLYLQMSSLRSEDTALYYCARQRDSAWFASWGQGTLVTVSAGGGGSGGGGSGGGGSDIVLTQSPASLAVSLGQRATISCRASENVDDYGVSFMNWFQQKPGQPPKLLIYPASNQGSGVPARFSGSGSGTDFSLNIHPMEEDDTAMYFCQQSKEVPWTFGGGTKLEIKGSGDYKDDDDKGSGHHHHHH | 5.14 | 0.000417 | 81200 | – | – | –
3 | h1E9-1 (VH3-21-Vκ1-9) scFv (scFv, Whole scFv chain with FlagHis tag) scFv: MEVQLVESGGGLVKPGGSLRLSCAASGFTFSTFGMSWVRQAPGKGLEWVSTISGGGSDTYYPDSVQGRFTISRDNAKNSLYLQMNSLRAEDTAVYYCARQGYDVYSWFAYWGQGTLVTVSSGGGGSGGGGSGGGGSDIQLTQSPSFLSASVGDRVTITCRASESVDNSGISFMSWYQQKPGKAPKLLIYTASNQGSGVPSRFSGSGSGTEFTLTISSLQPEDFATYYCQQSKEVPWTFGQGTKVEIKGSGDYKDDDDKGSGHHHHHH | 2.58 | 0.000468 | 182000 | – | – | –
4 | h1E9-4 (VH3-7-Vκ1-9) scFv (scFv, Whole scFv chain with FlagHis tag) scFv: MEVQLVESGGGLVQPGGSLRLSCAASGFTFSTFGMSWVRQAPGKGLEWVATISGGGSDTYYPDSVQGRFTISRDNAKNSLYLQMNSLRAEDTAVYYCARQGYDVYSWFAYWGQGTLVTVSSGGGGSGGGGSGGGGSDIQLTQSPSFLSASVGDRVTITCRASESVDNSGISFMSWYQQKPGKAPKLLIYTASNQGSGVPSRFSGSGSGTEFTLTISSLQPEDFATYYCQQSKEVPWTFGQGTKVEIKGSGDYKDDDDKGSGHHHHHH | 3.66 | 0.000679 | 185000 | – | – | –
5 | h1E9-2 (VH3-21-Vκ3-11) scFv (scFv, Whole scFv chain with FlagHis tag) scFv: MEVQLVESGGGLVKPGGSLRLSCAASGFTFSTFGMSWVRQAPGKGLEWVSTISGGGSDTYYPDSVQGRFTISRDNAKNSLYLQMNSLRAEDTAVYYCARQGYDVYSWFAYWGQGTLVTVSSGGGGSGGGGSGGGGSEIVLTQSPATLSLSPGERATLSCRASESVDNSGISFMSWYQQKPGQAPRLLIYTASNQGSGIPARFSGSGSGTDFTLTISSLEPEDFAVYYCQQSKEVPWTFGQGTKVEIKGSGDYKDDDDKGSGHHHHHH | 38.5 | 0.00182 | 47400 | – | – | –
6 | h1E9-5 (VH3-7-Vκ3-11) scFv (scFv, Whole scFv chain with FlagHis tag) scFv: MEVQLVESGGGLVQPGGSLRLSCAASGFTFSTFGMSWVRQAPGKGLEWVATISGGGSDTYYPDSVQGRFTISRDNAKNSLYLQMNSLRAEDTAVYYCARQGYDVYSWFAYWGQGTLVTVSSGGGGSGGGGSGGGGSEIVLTQSPATLSLSPGERATLSCRASESVDNSGISFMSWYQQKPGQAPRLLIYTASNQGSGIPARFSGSGSGTDFTLTISSLEPEDFAVYYCQQSKEVPWTFGQGTKVEIKGSGDYKDDDDKGSGHHHHHH | 3.15 | 0.000628 | 200000 | – | – | –
7 | h4B10-1 (VH3-15-Vκ3-11) scFv (scFv, Whole scFv chain with FlagHis tag) scFv: MEVQLVESGGGLVKPGGSLRLSCAASGFTFSTYGMSWVRQAPGKGLEWVATISGGGSNTYYSDSVKGRFTISRDDSKNTLYLQMNSLKTEDTAVYYCARQRDSAWFASWGQGTLVTVSSGGGGSGGGGSGGGGSEIVLTQSPATLSLSPGERATLSCRASENVDDYGVSFMNWYQQKPGQAPRLLIYPASNQGSGIPARFSGSGSGTDFTLTISSLEPEDFAVYYCQQSKEVPWTFGQGTKVEIKGSGDYKDDDDKGSGHHHHHH | 2.47 | 0.00299 | 1.21e+06 | – | – | –
8 | h4B10-2 (VH3-15-Vκ3-20) scFv (scFv, Whole scFv chain with FlagHis tag) scFv: MEVQLVESGGGLVKPGGSLRLSCAASGFTFSTYGMSWVRQAPGKGLEWVATISGGGSNTYYSDSVKGRFTISRDDSKNTLYLQMNSLKTEDTAVYYCARQRDSAWFASWGQGTLVTVSSGGGGSGGGGSGGGGSEIVLTQSPGTLSLSPGERATLSCRASENVDDYGVSFMNWYQQKPGQAPRLLIYPASNQGSGIPDRFSGSGSGTDFTLTISRLEPEDFAVYYCQQSKEVPWTFGQGTKVEIKGSGDYKDDDDKGSGHHHHHH | 2.79 | 0.00324 | 1.16e+06 | – | – | –
9 | h4B10-3 (VH3-15-Vκ4-1) scFv (scFv, Whole scFv chain with FlagHis tag) scFv: MEVQLVESGGGLVKPGGSLRLSCAASGFTFSTYGMSWVRQAPGKGLEWVATISGGGSNTYYSDSVKGRFTISRDDSKNTLYLQMNSLKTEDTAVYYCARQRDSAWFASWGQGTLVTVSSGGGGSGGGGSGGGGSDIVMTQSPDSLAVSLGERATINCRASENVDDYGVSFMNWYQQKPGQPPKLLIYPASNQGSGVPDRFSGSGSGTDFTLTISSLQAEDVAVYYCQQSKEVPWTFGGGTKLEIKGSGDYKDDDDKGSGHHHHHH | 1.2 | 0.000617 | 513000 | – | – | –
10 | h1E9-HC3 × h1E9-LC1 IgG (antibody, Humanized IgG; heavy chain with C-terminal FlagHis tag) heavy: not shown light: MDIQLTQSPSSLSASVGDRVTITCRASESVDNSGISFMSWYQQKPGKAPKLLIYTASNQGSGVPSRFSGSGSGTDFTFTISSLQPEDIATYYCQQSKEVPWTFGQGTKVEIKRTVAAPSVFIFPPSDEQLKSGTASVVCLLNNFYPREAKVQWKVDNALQSGNSQESVTEQDSKDSTYSLSSTLTLSKADYEKHKVYACEVTHQGLSSPVTKSFNRGEC | – | – | – | 4 | 8 | 3.6
11 | h1E9-5-IgG-HC-FLAG-HIS × h1E9-LC1 IgG (antibody, also called h1E9-5 HC × h1E9-LC1) heavy: not shown light: MDIQLTQSPSSLSASVGDRVTITCRASESVDNSGISFMSWYQQKPGKAPKLLIYTASNQGSGVPSRFSGSGSGTDFTFTISSLQPEDIATYYCQQSKEVPWTFGQGTKVEIKRTVAAPSVFIFPPSDEQLKSGTASVVCLLNNFYPREAKVQWKVDNALQSGNSQESVTEQDSKDSTYSLSSTLTLSKADYEKHKVYACEVTHQGLSSPVTKSFNRGEC | – | – | – | 4 | 9 | 3.7
12 | h1E9-HC1 × h1E9-LC1 IgG (antibody, Humanized IgG; heavy chain with C-terminal FlagHis tag) heavy: not shown light: MDIQLTQSPSSLSASVGDRVTITCRASESVDNSGISFMSWYQQKPGKAPKLLIYTASNQGSGVPSRFSGSGSGTDFTFTISSLQPEDIATYYCQQSKEVPWTFGQGTKVEIKRTVAAPSVFIFPPSDEQLKSGTASVVCLLNNFYPREAKVQWKVDNALQSGNSQESVTEQDSKDSTYSLSSTLTLSKADYEKHKVYACEVTHQGLSSPVTKSFNRGEC | – | – | – | 7 | 6 | 5.08
